Changes are numbered by the printed parent chain. Each block holds one binder with its values, some of them ahead of it.
What was measured:
[1] = molecular target: T1, Fhm, hTL1A(Q167R), soluble, E. coli-expressed, residues 72-251 of SEQ ID NO:246 (human, UniProt O95150 72-251); assay: SPR 25C, mAb captured
T1 construct: with or without N-terminal Met
T1 chain: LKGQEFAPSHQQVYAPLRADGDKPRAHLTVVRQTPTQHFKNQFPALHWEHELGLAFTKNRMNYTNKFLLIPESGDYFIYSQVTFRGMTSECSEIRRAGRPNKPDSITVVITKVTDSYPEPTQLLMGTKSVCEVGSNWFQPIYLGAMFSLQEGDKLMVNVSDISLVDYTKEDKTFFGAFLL
Method: (§1) Measurements were conducted on a T100 BIACORE™ instrument. […] Kinetic association (kₐ) and dissociation (kd) rate constants were determined by fitting the data to a 1:1 binding model using BIAevaluation 4.1 curve fitting software (BIAcore Life Sciences). Molar concentrations of TL1A/Fhm used in the data fitting assumed a monomeric state for TL1A in solution. Binding dissociation equilibrium constants (KD) and dissociative half-lives (t_{1/2}) were calculated from the kinetic rate constants as: KD (M)=kd/kₐ; and t_{1/2} (min)=[In2/(60*kd)].

[2] = molecular target: T2, cynomolgus monkey TL1A, soluble, E. coli-expressed, residues 72-251 of SEQ ID NO:248 (cynomolgus monkey (Macaca fascicularis), UniProt O95150 72-251 (human entry)); assay: SPR 25C, mAb captured
T2 construct: with or without N-terminal Met; also called MfTL1A (E. Coli)
T2 chain: T1 chain with F39L, I78V, R96Q
Method: as §1

[3] = molecular target: T2, cynomolgus monkey TL1A, soluble, E. …; assay: SPR 37C, mAb captured
Method: as §1

[4] = molecular target: T3, mouse TL1A, soluble, E. coli-expressed, residues 76-252 of SEQ ID NO:250 (mouse, UniProt Q5UBV8 76-252); assay: SPR 25C, steady state
T3 construct: with or without N-terminal Met; also called mTL1A (E. Coli)
T3 sequence: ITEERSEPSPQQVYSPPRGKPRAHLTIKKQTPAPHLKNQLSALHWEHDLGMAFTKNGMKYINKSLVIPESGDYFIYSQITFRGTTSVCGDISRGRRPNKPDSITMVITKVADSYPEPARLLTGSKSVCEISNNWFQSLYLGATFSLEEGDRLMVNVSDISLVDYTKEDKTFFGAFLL
Method: as §1, with “Binding dissociation equilibrium constants (KD) and dissociative half-lives (t_{1/2}) were calculated from the kinetic rate constants as: KD (M)=kd/kₐ; and t_{1/2} (min)=[In2/(60*kd)].” left out

[5] = molecular target: T4, human TL1A, soluble, CHO-expressed, residues 72-251 of SEQ ID NO:244 with N-terminal His6-tag (human, UniProt O95150 72-251); assay: ELISA, blocks hTL1A (10 pM) binding hDcR3-Fc
T4 construct: also called hTL1A; hTL1A (CHO)
T4 sequence: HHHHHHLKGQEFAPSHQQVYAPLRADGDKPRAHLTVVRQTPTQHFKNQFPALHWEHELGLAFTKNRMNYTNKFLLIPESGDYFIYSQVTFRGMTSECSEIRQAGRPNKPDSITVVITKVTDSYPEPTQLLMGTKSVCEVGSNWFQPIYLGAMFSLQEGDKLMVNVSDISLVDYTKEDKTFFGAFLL
Method: (§2) The ability of antibodies to block human TL1A binding to its cognate receptors, the DR3 and DcR3 receptors, was measured using a competition sandwich ELISA. In addition, blocking of a human TL1A variant FHM (human TL1A Q167R) and the cynomolgus monkey (Macaca fascicularis) TL1A (MfTL1A) protein binding to the human DR3 or DcR3 receptors was measured in the same manner. Constant amounts of biotinylated human TL1A or FHM (both expressed with a 6-His tag in CHO cells) or biotinylated MfTL1A (expressed in CHO cells) were separately titrated with varying amounts of antibodies. The antibody-protein complexes were incubated in solution (1 hr, 25° C.) and then transferred to microtiter plates coated with human DR3 (hDR3) or human DcR3 (hDcR3) expressed as human IgG1 Fc fusion proteins. After one hour at 25° C. the wells were washed, and bound human or monkey TL1A was detected with streptavidin conjugated with horseradish peroxidase (HRP). Wells were developed with a TMB solution to produce a colorimetric reaction and quenched with aqueous sulfuric acid before reading absorbance at 450 nm on a Perkin-Elmer Victor X5 plate reader. A sigmoidal dose-response curve was fit to the data using the Prism™ data analysis package. […] Both fully human anti-hTL1A mAbs and comparator antibodies, i.e., control mAb1 (an anti-hTL1A antibody with heavy and light chain variable domains having the amino acid sequences corresponding to SEQ ID NOS:21 and 27, respectively, of US 2009/0280116) and control mAb3 (an anti-hTL1A antibody with heavy and light chain variable domains having the amino acid sequences corresponding to SEQ ID NOS:57 and 48, respectively, of US 2009/0280116), were included in the study. NB: No binding under the conditions tested; NT: Not tested. Concentrations of biotinylated soluble ligands: (1) 150 pM; (2) 500 pM; (3) 10 pM; and (4) 50 pM.

[6] = molecular target: T4, human TL1A, soluble, CHO-expressed, …; assay: ELISA, blocks hTL1A (150 pM) binding hDR3-Fc
Method: as §2

[7] = molecular target: T5, cynomolgus monkey TL1A, soluble, CHO-expressed, residues 72-251 of SEQ ID NO:248 with N-terminal His6-tag (cynomolgus monkey (Macaca fascicularis), UniProt O95150 72-251 (human entry)); assay: ELISA, blocks MfTL1A (50 pM) binding hDcR3-Fc
T5 construct: also called MfTL1A; MfTL1A (CHO)
T5 chain: T4 sequence with F45L, I84V
Method: as §2

[8] = molecular target: T5, cynomolgus monkey TL1A, soluble, …; assay: ELISA, blocks MfTL1A (500 pM) binding hDR3-Fc
Method: as §2

[9] = molecular target: T6, Fhm, hTL1A(Q167R), soluble, CHO-expressed, residues 72-251 of SEQ ID NO:246 (human, UniProt O95150 72-251); assay: ELISA, blocks FHM (150 pM) binding hDR3-Fc; blocking of FHM binding to hDR3
T6 construct: also called Fhm (CHO); FHM (CHO)
T6 chain: T4 sequence with Q102R
Method: as §2

[10] = molecular target: T7, mouse DR3, full-length, expressed on HEK293 NFkB-luciferase reporter cells (mouse); assay: cell-based or functional assay
T7 chain: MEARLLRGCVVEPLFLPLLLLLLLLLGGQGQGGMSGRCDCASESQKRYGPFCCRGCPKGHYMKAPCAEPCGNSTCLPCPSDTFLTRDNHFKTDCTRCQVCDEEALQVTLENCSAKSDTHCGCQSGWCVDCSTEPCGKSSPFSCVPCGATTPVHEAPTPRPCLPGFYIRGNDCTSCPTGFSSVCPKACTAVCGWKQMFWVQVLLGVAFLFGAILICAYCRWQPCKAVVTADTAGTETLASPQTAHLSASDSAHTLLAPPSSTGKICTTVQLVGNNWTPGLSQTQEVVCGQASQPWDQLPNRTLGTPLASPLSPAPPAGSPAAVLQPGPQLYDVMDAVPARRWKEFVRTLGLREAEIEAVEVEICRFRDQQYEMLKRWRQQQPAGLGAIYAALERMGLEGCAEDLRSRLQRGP

Kd [1]: 1.08 nM
t1/2 [1]: 17 min
Kd [2]: 1.84 nM
t1/2 [2]: 10 min
Kd [3]: 4.1 nM
t1/2 [3]: 3 min
Kd [4]: 171 nM
IC50 [5]: 0.396 nM
IC50 [6]: 0.154 nM
IC50 [7]: 0.055 nM
IC50 [8]: 0.239 nM
IC50 [9]: 0.317 nM
B1: H2M1818N (antibody, V domains shown)
VH: RLQLVESGGGLVKPGGSLKLSCAASGFTISDYYMSWIRQAPGKGLEWVSYIGGSGSTIYYADSVKGRFTISRDNAKNSLYLQMNSLRAEDTAVYYCAREDADSYYYYGMDVWGQGTTVTVSS
VL: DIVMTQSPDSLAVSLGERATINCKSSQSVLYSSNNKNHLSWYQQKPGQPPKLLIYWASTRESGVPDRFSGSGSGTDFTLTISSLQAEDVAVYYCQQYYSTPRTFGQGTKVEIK
notes: chimeric hybridoma antibody: human variable regions, mouse constant regions (mouse Fc)

EC50 (cells), NFkB-luciferase reporter [10]: 12400 cells
B2: full length mouse TL1A expressed on HEK293 cells (ligand)
chain: MAEELGLGFGEGVPVEVLPEGCRHRPEARAGLAARSKACLALTCCLLSFPILAGLSTLLMAGQLRVPGKDCMLRAITEERSEPSPQQVYSPPRGKPRAHLTIKKQTPAPHLKNQLSALHWEHDLGMAFTKNGMKYINKSLVIPESGDYFIYSQITFRGTTSVCGDISRGRRPNKPDSITMVITKVADSYPEPARLLTGSKSVCEISNNWFQSLYLGATFSLEEGDRLMVNVSDISLVDYTKEDKTFFGAFLL

EC50 (cells), NFkB-luciferase reporter [10]: 9770 cells
B3: full length rat TL1A expressed on HEK293 cells (ligand)
chain: MAEELGLGFGEAVPVEMLPEGCRHRREARTGLAARSKACLALTCCLLSFPILAGLSTLLMTGQLRIPGKDCMFPTVTEERSAPSAQPVYTPSRDKPKAHLTIMRQTPVPHLKNELAALHWENNLGMAFTKNRMNYTNKFLVIPESGDYFIYSQITFRGTTSECGDISRVRRPKKPDSITVVITKVADSYPEPAHLLTGTKSVCEISSNWFQPIYLGAMFSLEEGDRLMVNVSDISLVDYTKEDKTFFGAFLI

Kd [1]: 0.192 nM
t1/2 [1]: 108 min
Kd [2]: 0.176 nM
t1/2 [2]: 172 min
Kd [3]: 0.218 nM
t1/2 [3]: 118 min
binding result [4]: no binding (tested: up to 100 nM)
IC50 [5]: 0.12 nM
IC50 [6]: 0.046 nM
IC50 [7]: 0.009 nM
IC50 [8]: 0.081 nM
IC50 [9]: 0.102 nM
B4: H2M1804N (antibody, V domains shown)
VH: QVQLHQWGAGLLKPSETLSLTCAVSGVSFSDYHWAWIRQSPGKGLEWIGDINHRGRTNYNPSLKSRVTISLDTSGNPFSLKLTSVTAADTAVYYCARDFPNWVFDSWGQGILVTVSS
VL: EIVLSQSPGTLSLSPGERATLSCRASQSVSSSFLAWYQQYPGQAPRLLIYGASRRATGIPDRFRGSGSGTDFTLTISRLEPEDFAVYYCQQYGSSPLTFGGGTKVENK
notes: as for B1
